Source: the Human Domainome abundance scans (Beltran et al. 2025)

B1: E3 ubiquitin-protein ligase NEDD4-like, residues 539 to 589; numbered along this chain, Q96PU5 (parent)
chain: KTSLNPNDLGPLPPGWEERIHLDGRTFYIDHNSKITQWEDPRLQNPAITGP

Variants of: B1
Experiment: abundance fitness (aPCA) (normalised: wild type 0, dead -1); higher = more abundant; growth selection in yeast, the domain comes from the species named
Details: Homo sapiens

Abundance fitness of substitutions, site by site:
T36: F -0.261; W -0.491; P -0.608; N -0.469; V -0.263; E -0.119; G -0.224; Q -0.336; M -0.208; A -0.341; C 0.086; R -0.291; H 0.032; L -0.558
E39: T -0.105; M -0.245; A -0.15; W -0.456; N -0.009; Y -0.412; V -0.233; I -0.251; G -0.183; D -0.077; L -0.313; F -0.45; Q -0.362; K -0.216; S -0.1; C -0.194; R -0.208; H -0.153
K34: T -0.218; N -0.053; E -0.251; I -0.875; V -0.58; Y -0.39; M -0.105; S -0.197; G -0.022; Q 0.076; C -0.223; L -0.284; W -0.547; H -0.087; R -0.119; D -0.063; A -0.176; P -0.857; F -0.513
H31: E -0.243; D -0.601; Q -0.224; A -0.174; W -0.428; Y -0.414; T 0.065; G -0.243; F -0.479; V -0.07; S -0.08; K 0.11; L -0.04; C -0.149; M 0; R -0.156; I -0.017
I35: S -0.079; V -0.163; G -0.301; F -0.16; C 0.002; T 0.04; L -0.035; A 0.008; Y -0.291; N -0.042; D -0.128; Q 0.029; K 0.065; M -0.239; R 0.048
Q37: V -0.397; F -0.358; T 0.21; H 0.068; N -0.511; G -0.723; W -0.564; Y -0.33; L -0.703; S -0.014; A -0.443; C -0.207; M -0.231; K -0.357; E -0.742; D -0.521
N32: F -0.39; H -0.286; V -0.064; W -0.395; K -0.011; A -0.339; S -0.086; Y -0.24; L -0.181; M -0.164; C -0.312; R -0.044; P -0.594; I 0.074; Q -0.18; E -0.03; D -0.118; T -0.035
D30: L -0.591; Q -0.424; F -0.546; H 0.125; G -0.617; P -0.953; T -0.716; E -0.24; A -0.539; K -0.369; S -0.32; M -0.753; N 0.166; Y -0.358; I -0.87; R -0.553; V -1.03; C -0.166
W38: G -0.249; Q -0.07; L -0.173; H -0.121; I -0.162; T 0.058; Y -0.041; V -0.146; A -0.014; M -0.127; N -0.059; E 0.068; D 0.002; P -0.223; F 0.066; K -0.029
S33: H 0.098; E -0.067; D -0.267; V -0.385; M -0.279; N -0.001; K 0.05; Q -0.188; I -0.42; A -0.061; L -0.188; R 0.056; W -0.802; C -0.153; T 0.066; G -0.344
